The target of assay [1] is α2 portion of the human α2δ1 protein (voltage-sensitive calcium channel subunit) (human). Nature of the assay: localized surface plasmon resonance (LSPR); α2-functionalized sensors incubated overnight with full-length PLN (10 nM) or PLN Dm III-2 (100 nM), no GBP; Δλ_LSPR.
Assay [2] shares this target. Nature of the assay: localized surface plasmon resonance (LSPR); α2 amide-coupled to gold triangular nanoprisms on glass; sensors incubated with 1 × 10^−16 to 1 × 10^−8 M PLN or PLN domains in PBS pH 7.2; Δλ_LSPR by UV-visible spectroscopy; KD from Hill-Langmuir fit with extrapolated Bmax.

Δλ LSPR and Kd data for four substances are collected here from PMC9776037.

On to “Perlecan domain III-2, cysteine-free globular region (laminin IV-A2) (domain or fragment)”, for which the Δλ LSPR in assay [1] was determined as 12.7 nm. Also, the Kd (as a rule, the constant that tells how readily two partners part at equilibrium) in assay [2] was 8e-05 µM. On to “Perlecan domain IV-1 (PLN Dm IV-1) (domain or fragment)”, for which the Kd in assay [2] was 0.14 µM. For the substance “Perlecan domain IV-2 (PLN Dm IV-2) (domain or fragment)”, in assay [2], the Kd is 430 µM.

For the substance “Perlecan domain IV-3 (PLN Dm IV-3) (domain or fragment)”, the Kd in assay [2] was 280 µM.
